Legend:
[1] = biological target: T1, Recombinant Human/Mouse Indian Hedgehog C28II, amino terminal peptide (R&D Systems cat#1705-HH/CF) (human/mouse (100% sequence identity in …, UniProt Q14623 28-202)); assay: SPR (Biacore), IgG1 captured on protein G', human/mouse Ihh as analyte, 1:1 Langmuir
T1 construct: domain: amino terminal peptide; bought; also called Human/mouse Ihh; Ihh-N C28II
From the text: (§1) Protein G was coupled to the CM5 chip surface using standard amine linkage chemistry. Protein G′ was cleared of Tris using a Dulbecco's PBS equilibrated PD-10 column. […] Approximately 500 RUs of protein G were covalently bound to the surface of flow chamber 2 (Fc2). […] Immobilization levels were reproducible between cycles.

[2] = biological target: T1, Recombinant Human/Mouse Indian Hedgehog …; assay: cell-based or functional assay
[3] = biological target: T2, Recombinant Human Sonic Hedgehog C24II amino terminal peptide (R&D Systems cat#1845-SH) (human, UniProt Q15465 24-197); assay: SPR (Biacore), IgG1 captured on protein G', human Shh as analyte, 1:1 Langmuir
T2 construct: domain: amino terminal peptide; bought; also called Shh-C24II; C24II peptide
From the text: as §1

[4] = biological target: T3, Shh-N in conditioned medium (human, UniProt Q15465 24-197, N-terminal palmitoyl modification; lacks the C-terminal cholesterol moiety); assay: ELISA, apparent KD, purified antibody on immobilized Shh-CM
T3 construct: domain: N-terminal signaling domain; also called Shh-CM; Shh conditioned media (CM)
Method: (§2) The binding of purified antibodies to recombinant human Shh was determined using an ELISA-based method. The N-terminal signaling domain of Shh, Shh-N, was presented in two forms: as a purified protein isolated from bacteria lacking lipid modifications and as a constituent of conditioned medium in a form that contains the N-terminal palmitoyl modification but lacks the C-terminal cholesterol moiety.
(§3) The plates were sealed and placed on a shaker overnight at 5° C. The next day, the plates were washed 4 times with PBS with 0.05% Tween 20 (PBS-T). […] The plates were washed four times with PBS-T. Titrations of purified antibody (half log serial dilutions over at least six logs with a starting concentration of 30 μg/mL) were made in 100 μl PBS-T and added into wells and incubated with shaking overnight at 4° C. Antibody controls included human IgG2 and IgG4 (Sigma-Aldrich, Cat, #I5404 and #I4639, respectively). […] Following washing with PBS-T, the chemiluminescent Peroxidase substrate (Sigma cat# CPS-2-60) was added at room temperature and incubated for ten minutes with the plate covered by foil. Each well was read for 100 msec in the Spectromax 5e to determine RLU.

[5] = biological target: T1, Recombinant Human/Mouse Indian Hedgehog …; assay: SPR (Biacore), IgG1 captured on protein G', Ihh as analyte
From the text: as §1

[6] = biological target: T2, Recombinant Human Sonic Hedgehog C24II …; assay: ELISA, apparent KD, purified antibody on immobilized Shh C24II
Method: as §2, §3

[7] = biological target: T3, Shh-N in conditioned medium; assay: cell-based or functional assay

Kd [1]	IC50, inhibition of osteoblast differentiation of C3H10T1/2 cells induced by Ihh-N C28II (2 µg/ml) [2]	Kd [3]	Kd [4]	binding result [5]	Kd [6]	IC50, inhibition of osteoblast differentiation (alkaline phosphatase) of C3H10T1/2 cells [7]	Binder
0.0342 nM	16.3 nM	0.003 nM	–	–	–	–	6D7OP (antibody, IgG1, V domains shown) VH: QVQLQESGPGLVKPSQTLSLTCTVSGGSINSGGFYWSWIRQHPGKGLEWIGSIYYSGNTYYNPSLKSRVTISVDTSKNQFSLKLSSVTAADTAVYYCARGQDSGDYDWYFDLWGRGTLVTVSS VL: SYELTQPPSVSVSPGQTASITCSGEKLGYKYVSWYQQKPGQSPVLVIYHDNKRPSGIPERFSGSNSGNTATLTISGTQAMDEADYYCQAGDSSAVFGGGTKLTVL
–	–	0.0261 nM	0.685 nM	no binding	0.082 nM	5.6 nM	3H8OP (antibody, V domains shown) VH: QVQLVESGGGVVQPGRSLRLSCAASGFTFSTYGMHWVRQAPGKGLEWVAVIWYDGSNKYYADSVKGRFTISRDNSKNTLYLQMNSLRAEDTAVYYCARDLYYYGSGSPFDYWGQGTLVTVSS VL: EIVMTQSPATLSVSPGERATLSCRASQSVSSNLAWYQQKPGQAPRLLIYGVSIRATGIPARFSGSGSGTEFTLTISSLQSEDFAVYYCQQYNNWPRPGFGGGTKVEIK
